The target of data set [1] is T1, His14-MBP-METTL8 (Homo sapiens, UniProt B3KW44 1-407).
T1 sequence: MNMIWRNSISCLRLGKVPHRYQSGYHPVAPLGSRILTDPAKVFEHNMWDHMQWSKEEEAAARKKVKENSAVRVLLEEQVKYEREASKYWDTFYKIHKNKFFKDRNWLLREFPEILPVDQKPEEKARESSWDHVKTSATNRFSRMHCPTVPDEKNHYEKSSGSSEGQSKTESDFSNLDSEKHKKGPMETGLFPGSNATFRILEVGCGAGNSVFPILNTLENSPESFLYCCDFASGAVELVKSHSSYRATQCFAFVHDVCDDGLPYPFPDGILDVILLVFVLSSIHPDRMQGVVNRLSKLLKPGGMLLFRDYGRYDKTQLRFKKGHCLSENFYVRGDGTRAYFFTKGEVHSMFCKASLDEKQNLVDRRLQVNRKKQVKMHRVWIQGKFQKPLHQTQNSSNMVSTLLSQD
Kind of data set: fluorescence anisotropy; 30 mM phosphate pH 7.3, 200 mM KCl, 20 nM labelled oligonucleotide, 0-2 uM protein, 5 min at room temperature, measured at 22 C. Conditions: protein: recombinant; tags: N-terminal His14-MBP; label: 5' fluorescein; hairpin. In general terms: In fluorescence polarisation assays a small probe gives low polarisation when free and higher when bound to something large.

The target in data set [2] is T1, His14-MBP-METTL8. The data set is described as above. The note with it: protein: recombinant; tags: N-terminal His14-MBP; label: fluorescein (5' click per Methods); hairpin.
The target of data set [3] is T1, His14-MBP-METTL8. Kind of data set: fluorescence anisotropy; affinity similar to ASLs; Kd only in figure; 30 mM phosphate pH 7.3, 200 mM KCl, 20 nM labelled oligonucleotide, 0-2 uM protein, 5 min at room temperature, measured at 22 C. The note with it: protein: recombinant; tags: N-terminal His14-MBP; label: fluorescein (5' click per Methods); single strand.
Data set [4] addresses T1, His14-MBP-METTL8. Kind of data set: fluorescence anisotropy; up to 2 uM protein; 30 mM phosphate pH 7.3, 200 mM KCl, 20 nM labelled oligonucleotide, 0-2 uM protein, 5 min at room temperature, measured at 22 C. Conditions: protein: recombinant; tags: N-terminal His14-MBP; label: 5' fluorescein.
Data set [5] deals with T1, His14-MBP-METTL8. Put plainly: fluorescence anisotropy; high affinity; lower than i6A37 ASL; Kd only in figure; 30 mM phosphate pH 7.3, 200 mM KCl, 20 nM labelled oligonucleotide, 0-2 uM protein, 5 min at room temperature, measured at 22 C. Conditions: protein: recombinant; tags: N-terminal His14-MBP; label: fluorescein (5' hexynyl/6FAM azide click); hairpin.
In data set [6] the target is T1, His14-MBP-METTL8. Kind of data set: fluorescence anisotropy; high affinity; Kd only in figure; 30 mM phosphate pH 7.3, 200 mM KCl, 20 nM labelled oligonucleotide, 0-2 uM protein, 5 min at room temperature, measured at 22 C. The note with it: protein: recombinant; tags: N-terminal His14-MBP; label: fluorescein (5' click per Methods); hairpin.

One may read the Kd as a measure of binding affinity in units of concentration. On to GUUGGCUUGAAACCAGCU (structured_RNA, i6A at strand position 11 (A37)) [mt-tRNASer(UCN) i6A37 ASL], for which the Kd with His14-MBP-METTL8 [1] came to 200 nM. As to GUUGGCUUGAAACCAGCU (structured_RNA, m3C at strand position 6 (C32); i6A at strand position 11 (A37)) [mt-tRNASer(UCN) m3C32 i6A37 ASL], the binding signal with His14-MBP-METTL8 [2] is ~2.5 fold weaker than i6A37 ASL (N6).

For the molecule GUAAAAGUCGUAACAAAGGU (ssRNA) [Unstructured RNA R420], the binding result in the data set with His14-MBP-METTL8 [3] was “binds”. As for GATGTGCAGCTGCACATC (ssDNA) [DNA oligonucleotide], the binding result with His14-MBP-METTL8 [4] is reported as “no binding”.

Take GUUGGCUUGAAACCAGCU (structured_RNA) [mt-tRNASer(UCN) ASL unmodified]: the binding result with His14-MBP-METTL8 [5] is recorded as “binds”.

On to GACAUACUGACCCUUCAAAUA (ssRNA) [Unstructured RNA 2], for which the binding result with His14-MBP-METTL8 [3] is “binds”. For UCGGGCCCAUACCCCGA (structured_RNA) [mt-tRNAMet ASL], the binding result with His14-MBP-METTL8 [6] was “binds”.
